From paper PMC10425521, “Crosstalk between glucocorticoid and mineralocorticoid receptors boosts glucocorticoid-induced killing of multiple myeloma cells” (Cellular and Molecular Life Sciences: CMLS, 2023)

Tests used:
[1] = target: T1, LgBiT-MR (mineralocorticoid receptor with LgBiT at the N-terminus) (UniProt P08235 1-984); experiment: split reporter (BiFC, NanoBiT); NanoBiT in intact HEK293T cells, Dex (10^-6 M) added after baseline, luminescence over 60 min, normalised to baseline and given as fold versus solvent; conditions: partners not purified
T1 construct: mineralocorticoid receptor (MR, NR3C2); NanoBiT fusion; also called pLgBiT-MR; source: HEK293T, transfected (calcium phosphate), in intact cells; not shown: LgBiT, N-terminal, kept
T1 sequence (looked up): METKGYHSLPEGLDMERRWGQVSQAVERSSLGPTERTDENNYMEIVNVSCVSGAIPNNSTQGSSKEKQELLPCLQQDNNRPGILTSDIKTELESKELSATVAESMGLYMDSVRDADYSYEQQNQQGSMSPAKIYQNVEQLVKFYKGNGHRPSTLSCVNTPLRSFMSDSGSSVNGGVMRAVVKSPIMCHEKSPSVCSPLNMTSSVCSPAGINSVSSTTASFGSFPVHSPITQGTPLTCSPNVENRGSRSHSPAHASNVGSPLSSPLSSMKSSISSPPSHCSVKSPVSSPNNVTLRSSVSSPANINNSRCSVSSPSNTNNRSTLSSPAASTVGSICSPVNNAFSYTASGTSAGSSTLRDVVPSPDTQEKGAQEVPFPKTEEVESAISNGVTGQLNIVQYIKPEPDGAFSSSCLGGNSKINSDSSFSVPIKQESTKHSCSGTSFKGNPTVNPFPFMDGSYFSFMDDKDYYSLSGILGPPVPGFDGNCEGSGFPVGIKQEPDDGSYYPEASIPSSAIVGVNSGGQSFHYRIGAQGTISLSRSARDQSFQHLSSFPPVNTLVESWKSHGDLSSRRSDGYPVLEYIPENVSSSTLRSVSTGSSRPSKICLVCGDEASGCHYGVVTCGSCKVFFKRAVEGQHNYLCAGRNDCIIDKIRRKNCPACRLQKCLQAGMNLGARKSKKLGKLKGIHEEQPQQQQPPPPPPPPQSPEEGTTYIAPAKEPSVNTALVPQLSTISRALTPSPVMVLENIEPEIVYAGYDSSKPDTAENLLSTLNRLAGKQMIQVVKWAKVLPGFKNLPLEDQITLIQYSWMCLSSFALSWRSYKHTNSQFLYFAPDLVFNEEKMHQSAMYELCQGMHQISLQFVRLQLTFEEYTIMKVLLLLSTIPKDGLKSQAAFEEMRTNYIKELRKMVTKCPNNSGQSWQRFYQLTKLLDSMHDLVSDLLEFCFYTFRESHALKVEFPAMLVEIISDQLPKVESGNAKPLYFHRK

[2] = target: T1, LgBiT-MR (mineralocorticoid receptor …); experiment: split reporter (BiFC, NanoBiT); NanoBiT in intact HEK293T cells, Dex (10^-6 M) together with Spi (10^-5 M) added after baseline, luminescence over 60 min, normalised to baseline and given as fold versus solvent; conditions: partners not purified

B1: GR-SmBiT (glucocorticoid receptor with SmBiT at the C-terminus) (receptor, UniProt P04150 1-777, looked up)
chain: MDSKESLTPGREENPSSVLAQERGDVMDFYKTLRGGATVKVSASSPSLAVASQSDSKQRRLLVDFPKGSVSNAQQPDLSKAVSLSMGLYMGETETKVMGNDLGFPQQGQISLSSGETDLKLLEESIANLNRSTSVPENPKSSASTAVSAAPTEKEFPKTHSDVSSEQQHLKGQTGTNGGNVKLYTTDQSTFDILQDLEFSSGSPGKETNESPWRSDLLIDENCLLSPLAGEDDSFLLEGNSNEDCKPLILPDTKPKIKDNGDLVLSSPSNVTLPQVKTEKEDFIELCTPGVIKQEKLGTVYCQASFPGANIIGNKMSAISVHGVSTSGGQMYHYDMNTASLSQQQDQKPIFNVIPPIPVGSENWNRCQGSGDDNLTSLGTLNFPGRTVFSNGYSSPSMRPDVSSPPSSSSTATTGPPPKLCLVCSDEASGCHYGVLTCGSCKVFFKRAVEGQHNYLCAGRNDCIIDKIRRKNCPACRYRKCLQAGMNLEARKTKKKIKGIQQATTGVSQETSENPGNKTIVPATLPQLTPTLVSLLEVIEPEVLYAGYDSSVPDSTWRIMTTLNMLGGRQVIAAVKWAKAIPGFRNLHLDDQMTLLQYSWMFLMAFALGWRSYRQSSANLLCFAPDLIINEQRMTLPCMYDQCKHMLYVSSELHRLQVSYEEYLCMKTLLLLSSVPKDGLKSQELFDEIRMTYIKELGKAIVKREGNSSQNWQRFYQLTKLLDSMHEVVENLLNYCFQTFLDKTMSIEFPEMLAEIITNQIPKYSNGNIKKLLFHQK
notes: glucocorticoid receptor (GR, NR3C1); NanoBiT fusion; also called pGR-SmBiT; source: HEK293T, transfected (calcium phosphate), in intact cells; not shown: SmBiT, C-terminal, kept
fold induction of NanoBiT luminescence versus solvent (with Dex) [1]: ~8 fold | fold induction of NanoBiT luminescence versus solvent (with Dex and Spi) [2]: ~6 fold
